One test has as its target T1, FcgRIIIa F (human, UniProt P08637 17-208).
T1 construct: extracellular domain; also called FcγRIIIa F; 3aF; not shown: His tag attached to the C terminus
Briefly: SPR (Biacore); binding of the heterodimerized antibody relative to GpH7-A5/GpH7-B3/GpL16-k0 = 100. On the technique in general: SPR reads the build-up and loss of mass on a sensor chip optically.

Test [1] concerns the target T2, FcγRIIIa extracellular domain with C-terminal His tag (human, UniProt P08637 17-208).
T2 construct: extracellular domain; Soluble receptor expressed in FreeStyle293 cells, used as analyte in Biacore; also called FcgRIIIa; 3a; not shown: His tag attached to the C terminus
As to the kind of experiment: SPR (Biacore); ratio of He/Con_3a (FcγRIIIa) to He/Con_2b (FcγRIIb). In short, it runs like this:
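Heterodimerized antibodies carrying an alteration in one H chain were captured onto antigen-peptide chips and probed with each activating or inhibitory FcγR by SPR (Biacore T100, 25 °C, HBS-EP+).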

The target in test [2] is T3, FcγRIIb extracellular domain with C-terminal His tag (human, UniProt P31994 43-217).
T3 construct: extracellular domain; Soluble receptor expressed in FreeStyle293 cells, used as analyte in Biacore; also called FcgRIIb; 2b; not shown: His tag attached to the C terminus
T3 sequence (looked up): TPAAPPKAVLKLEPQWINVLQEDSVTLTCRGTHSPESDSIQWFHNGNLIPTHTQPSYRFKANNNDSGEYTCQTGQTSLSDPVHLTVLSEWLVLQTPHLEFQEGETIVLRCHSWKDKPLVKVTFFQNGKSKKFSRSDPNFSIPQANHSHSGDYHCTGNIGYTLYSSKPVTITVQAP
Briefly: SPR (Biacore), antibody captured via antigen peptide, FcγR as analyte; binding amount relative to control heterodimerized antibody. How it is done: (§1) The heterodimerized antibodies He Abs in which one of the H chains was introduced with an alteration were assayed for their binding activities to each activating FcγR and inhibitory FcγR according to the method described in Example 4. […] The activating FcγRs in FIGS. 26, 27, 28, and 29 are FcγRIa, FcγRIIa (R), FcγRIIa (H), and FcγRIIIa, respectively.
(§2) Analysis of interaction between objective antibody and the FcγR was carried out using Biacore T100 (GE Healthcare). HBS-EP+ (GE Healthcare) was used as the running buffer, and the measurement temperature was set to 25° C. Chips produced by immobilizing the antigen peptide by the amine coupling method to a Series S Sencor Chip CM5 (GE Healthcare), or alternatively, chips produced by allowing preliminarily biotinylated antigen peptides to interact with and immobilize onto a Series S Sensor Chip SA (certified) (GE Healthcare) were used. Antibodies of interest were captured onto an antigen peptide-immobilized chip, and allowed to interact to each FcγR diluted with running buffer. To regenerate and repeatedly use the chip, the antibodies captured on the chip were washed off by reacting 10 mM glycine-HCl, pH 1.5.

Test [3] concerns the target T2, FcγRIIIa extracellular domain with …. Described as above. How it is done:
as §1, §2

T1 sequence (P08637 17-208): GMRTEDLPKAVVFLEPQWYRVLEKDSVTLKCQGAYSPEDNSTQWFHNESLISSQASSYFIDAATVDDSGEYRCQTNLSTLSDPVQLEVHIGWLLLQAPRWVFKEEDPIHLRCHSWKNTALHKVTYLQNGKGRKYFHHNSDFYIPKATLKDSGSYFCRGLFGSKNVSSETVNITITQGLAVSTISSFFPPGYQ
T2 sequence (P08637 17-208): as above

B1: GpH7-A5/GpH7-B3 variant (A330P)/GpL16-k0 (antibody, human IgG1, kappa)
heavy 1: not shown
heavy 2: not shown
light: DIVMTQSPLSLPVTPGEPASISCQASESLVHSNRNTYLHWYLQKPGQSPQLLIYKVSNRFSGVPDRFSGSGSGTDFTLKISRVEAEDVGVYYCSQNTHVPPTFGQGTKVEIERTVAAPSVFIFPPSDEQLKSGTASVVCLLNNFYPREAKVQWKVDNALQSGNSQESVTEQDSKDSTYSLSSTLTLSKADYEKHKVYACEVTHQGLSSPVTKSFNRGEC
notes: also called A330_05P; He Ab
B1: the He/Con_3aF with FcgRIIIa F is 152.

B2: GpH7-A5/GpH7-B3 variant (K326T)/GpL16-k0 (antibody, human IgG1, kappa)
heavy 1: not shown
heavy 2: not shown
light: DIVMTQSPLSLPVTPGEPASISCQASESLVHSNRNTYLHWYLQKPGQSPQLLIYKVSNRFSGVPDRFSGSGSGTDFTLKISRVEAEDVGVYYCSQNTHVPPTFGQGTKVEIERTVAAPSVFIFPPSDEQLKSGTASVVCLLNNFYPREAKVQWKVDNALQSGNSQESVTEQDSKDSTYSLSSTLTLSKADYEKHKVYACEVTHQGLSSPVTKSFNRGEC
notes: also called K326_14T; He Ab
For the molecule B2, in the test with FcgRIIIa F, the He/Con_3aF amounted to 140.

B3: GpH7-A5/GpH7-B3 variant (A330F)/GpL16-k0 (antibody, human IgG1, kappa)
heavy 1: not shown
heavy 2: not shown
light: DIVMTQSPLSLPVTPGEPASISCQASESLVHSNRNTYLHWYLQKPGQSPQLLIYKVSNRFSGVPDRFSGSGSGTDFTLKISRVEAEDVGVYYCSQNTHVPPTFGQGTKVEIERTVAAPSVFIFPPSDEQLKSGTASVVCLLNNFYPREAKVQWKVDNALQSGNSQESVTEQDSKDSTYSLSSTLTLSKADYEKHKVYACEVTHQGLSSPVTKSFNRGEC
notes: also called A330_04F; He Ab
For the molecule B3, in the test with FcgRIIIa F, the He/Con_3aF was determined as 144.

B4: GpH7-A5/GpH7-B3 variant (S298A)/GpL16-k0 (antibody, human IgG1, kappa)
heavy 1: not shown
heavy 2: not shown
light: DIVMTQSPLSLPVTPGEPASISCQASESLVHSNRNTYLHWYLQKPGQSPQLLIYKVSNRFSGVPDRFSGSGSGTDFTLKISRVEAEDVGVYYCSQNTHVPPTFGQGTKVEIERTVAAPSVFIFPPSDEQLKSGTASVVCLLNNFYPREAKVQWKVDNALQSGNSQESVTEQDSKDSTYSLSSTLTLSKADYEKHKVYACEVTHQGLSSPVTKSFNRGEC
notes: also called S298_02A; GpH7-A5/GpH7-B3-15-02A/GpL16-k0
In turn, B4 had a He/Con_3aF in the test with FcgRIIIa F of 151.

B5: GpH7-A5/GpH7-B3 variant (K334D)/GpL16-k0 (antibody, human IgG1, kappa)
heavy 1: not shown
heavy 2: not shown
light: DIVMTQSPLSLPVTPGEPASISCQASESLVHSNRNTYLHWYLQKPGQSPQLLIYKVSNRFSGVPDRFSGSGSGTDFTLKISRVEAEDVGVYYCSQNTHVPPTFGQGTKVEIERTVAAPSVFIFPPSDEQLKSGTASVVCLLNNFYPREAKVQWKVDNALQSGNSQESVTEQDSKDSTYSLSSTLTLSKADYEKHKVYACEVTHQGLSSPVTKSFNRGEC
notes: also called K334_09D; He Ab
Turning to B5, in the test with FcgRIIIa F, the He/Con_3aF worked out at 164.

B6: GpH7-A5/GpH7-B3 variant (K326I)/GpL16-k0 (antibody, human IgG1, kappa)
heavy 1: not shown
heavy 2: not shown
light: DIVMTQSPLSLPVTPGEPASISCQASESLVHSNRNTYLHWYLQKPGQSPQLLIYKVSNRFSGVPDRFSGSGSGTDFTLKISRVEAEDVGVYYCSQNTHVPPTFGQGTKVEIERTVAAPSVFIFPPSDEQLKSGTASVVCLLNNFYPREAKVQWKVDNALQSGNSQESVTEQDSKDSTYSLSSTLTLSKADYEKHKVYACEVTHQGLSSPVTKSFNRGEC
notes: also called K326_07I; He Ab
In the test with FcgRIIIa F, B6 registered a He/Con_3aF of 153.

B7: GpH7-A5/GpH7-B3 variant (H268E)/GpL16-k0 (antibody, human IgG1, kappa)
heavy 1: not shown
heavy 2: not shown
light: DIVMTQSPLSLPVTPGEPASISCQASESLVHSNRNTYLHWYLQKPGQSPQLLIYKVSNRFSGVPDRFSGSGSGTDFTLKISRVEAEDVGVYYCSQNTHVPPTFGQGTKVEIERTVAAPSVFIFPPSDEQLKSGTASVVCLLNNFYPREAKVQWKVDNALQSGNSQESVTEQDSKDSTYSLSSTLTLSKADYEKHKVYACEVTHQGLSSPVTKSFNRGEC
notes: also called H268_10E; He Ab
For B7, the He/Con_3aF in the test with FcgRIIIa F is 184.

B8: GpH7-A5/GpH7-B3 variant K334_15Y/GpL16-k0 (heterodimerized antibody, He Ab) (antibody, human IgG1, kappa)
heavy 1: not shown
heavy 2: not shown
light: DIVMTQSPLSLPVTPGEPASISCQASESLVHSNRNTYLHWYLQKPGQSPQLLIYKVSNRFSGVPDRFSGSGSGTDFTLKISRVEAEDVGVYYCSQNTHVPPTFGQGTKVEIERTVAAPSVFIFPPSDEQLKSGTASVVCLLNNFYPREAKVQWKVDNALQSGNSQESVTEQDSKDSTYSLSSTLTLSKADYEKHKVYACEVTHQGLSSPVTKSFNRGEC
notes: Anti-glypican-3 IgG1 heterodimerized antibody; the alteration stands only in the GpH7-B3 chain; Positions in EU numbering; also called K334Y
As to B8, the “IIIa/IIb (He_3a/2b)” value in test [1] turned out to be 1.29 ratio. In test [2], the “He/Con_2b (IIb binding)” value is 109 relative binding, GpH7-A5/GpH7-B3/GpL16-k0 = 100. The “He/Con_3a (IIIa binding)” value in test [3] was 141 relative binding, GpH7-A5/GpH7-B3/GpL16-k0 = 100.

B9: GpH7-A5/GpH7-B3 variant (H268A)/GpL16-k0 (antibody, human IgG1, kappa)
heavy 1: not shown
heavy 2: not shown
light: DIVMTQSPLSLPVTPGEPASISCQASESLVHSNRNTYLHWYLQKPGQSPQLLIYKVSNRFSGVPDRFSGSGSGTDFTLKISRVEAEDVGVYYCSQNTHVPPTFGQGTKVEIERTVAAPSVFIFPPSDEQLKSGTASVVCLLNNFYPREAKVQWKVDNALQSGNSQESVTEQDSKDSTYSLSSTLTLSKADYEKHKVYACEVTHQGLSSPVTKSFNRGEC
notes: also called H268_02A; He Ab
As for B9, the He/Con_3aF in the test with FcgRIIIa F was 121.

These data come from patent US20180155451A1 (published 2018).
